Positions count from the first letter of the chain named.
B1: PMX 015 (antibody, V domains shown)
V domain 1: EVQLVESGGDLVKPGGSLRISCVASGFTFSYYHMSWVRQAPGKGLQWVAYINSGGFSTNYADAVKGRCSISRDNGKNTLYLQMNSLRPEDTGVYYCASESRWGDSYSGMTYWGHGTSLFVSS
V domain 2: SYVLTQLPSKNVTLKQPAHITCGGDNIGSKSVHWYQQKLGQAPVLIIYYDNSRPTGIPERFSGAKSGNTATLTISGALAEDEADYYCQVWDSSAKASVFGGGTHLTVL
notes: anti-canine OX40L candidate
B2: PMX012 (antibody, V domains shown)
VH: EVQLVESGGDLVKPGGSLRLACVTSGFTFSSYHMNWVRQAPGKGLQWVAYINTGGTVTTYADAMNADAVRGRFTISRDNVKNTLYLQMNRLRAEDTAVYYCARGYGVFDYWGQGTLVTVSP
VL: SYVLTQLPSKNVTLKQPAHITCGGDNIGSKSVHWYQQKLGQAPVLIIYYDSRRPTGIPERFSGANSGNTATLTISGALAEDEADYYCQVWDNSDRASWVFGEGTQLTVL
notes: Canine variable regions from Ky9 mice; human kappa or canine kappa/lambda light constant
B3: PMX014 (antibody, V domains shown)
VH: EVQLVESGGDLVKPGGSLRLSCVASGFTFSNFHMSWVRQAPGKGLQWVAYINSGGFNINYEDAVRGRFTISRDNAKNTLYLQMNSLRAEDTAIYYCARDWDTHLDTNWFYYWGQGTLVTVSS
VL: B1 V domain 2 with P17S, G23R, N51S, K65N, S92I
notes: Canine variable regions

Assays:
[1] = target: T1, canine OX40L, full length membrane form, expressed on the cell surface (HEK293 or MEF cells stably … (canine (dog, beagle))); assay: flow cytometry, single dose, OX40L expressing HEK293 cells against the parental line, fluorescently labelled secondary antibody
T1 construct: The same protein is used on HEK293 and on MEF cells; also called HEK-OX40L; OX40L expressing HEK293 cells
T1 chain: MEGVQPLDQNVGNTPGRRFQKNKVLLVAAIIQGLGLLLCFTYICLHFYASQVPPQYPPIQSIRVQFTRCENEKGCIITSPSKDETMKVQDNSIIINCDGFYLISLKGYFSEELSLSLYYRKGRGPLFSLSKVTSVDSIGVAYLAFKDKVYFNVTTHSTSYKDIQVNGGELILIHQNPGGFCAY
Protocol: CHO cells supernatants containing candidate antibodies are diluted to 1, 5 or 10 μg/ml in FACS buffer (PBS containing 3% FBS) and screened for their ability to bind canine OX40L proteins expressed on cell surface. In brief, HEK293 or MEF cells (or any other commonly used cell lines) expressing canine OX40L at the cell surface are incubated with 100 μl of FACS buffer containing the candidate antibody for 30′ on ice. As a control the parental cell line (HEK293 or MEF cells not expressing OX40L) is also stained with the same antibody solution. After staining, cells are washed with 150 μl FACS buffer followed by centrifugation at 300 g for 3 min. Supernatant is removed, and the cell pellet is resuspended in FACS buffer containing a 1:1000 dilution of a fluorescently labelled secondary antibody recognising the human or canine Fc region of the test antibody for 30 min in the dark, followed by washing with 150 μl FACS buffer and centrifugation at 300 g for 3 mins. Cells are resuspended in FACS buffer and flow cytometry performed using either a […] cytometer, followed by data analysis using FlowJo (FIG. 8).

[2] = target: T1, canine OX40L, full length membrane …; assay: cell binding (flow cytometry on cells expressing OX40L; cell line not given)
Protocol: (§1) Specific binding to cells expressing OX40L is confirmed by purifying mAb from the CHO supernatant using protein A resin (MabSelect, Cytiva). In brief, MabSelect resin is washed in PBS and diluted to have a 10% slurry. An appropriate volume of the 10% slurry is added to the supernatant and incubated 5-10′ at RT before being loaded into a filter column. After 3 washes with PBS the antibodies are eluted using IgG elute buffer (Pierce) directly into neutralisation buffer (10 mM TRIS pH8.0), 8:1 IgG elute: neutralisation buffer ratio. Antibody solutions are quantified measuring absorbance at 280 nm, using a Nanodrop One (Thermo Fisher). Serial 1:3 dilutions of purified antibodies ranging from 6.6 μM to 66 pM are prepared in FACS buffer and are used to stain HEK293 or MEF cells (or any other commonly used cell lines) expressing canine OX40L.

[3] = target: T2, OX40L ECD-TNCc-HIS protein (trimeric soluble canine OX40L extra cellular domain probe, HIS tagged) (canine; chicken, UniProt P10039 110-139, limits assumed); assay: SPR exp 1, Biacore 8K, OX40L ECD-TNCc-HIS amine coupled to CM5 chip, antibody as analyte, Kd at equilibrium
T2 construct: domain: trimerization domain; also called HIS tagged trimeric OX40L protein; not shown: HIS tag
T2 sequence: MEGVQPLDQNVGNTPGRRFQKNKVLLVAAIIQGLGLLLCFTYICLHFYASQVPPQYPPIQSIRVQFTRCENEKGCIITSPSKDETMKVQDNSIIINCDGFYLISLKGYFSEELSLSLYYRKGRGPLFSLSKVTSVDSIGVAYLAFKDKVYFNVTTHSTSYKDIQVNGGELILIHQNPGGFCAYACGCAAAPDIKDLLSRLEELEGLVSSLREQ
Source text: (§2) To determine affinity by SPR (Biacore 8K, Cytivia), purified OX40L ECD-TNCc-HIS protein is covalently bound at low density to the surface of a CM5 sensor chip (Cytivia) by amine coupling, using the manufacturer's recommended protocol. Candidate antibodies are subsequently passed across the chip surface at a range of concentrations and affinity determined using the dedicated software (Biacore Insight Evaluation Software).

[4] = target: T2, OX40L ECD-TNCc-HIS protein (trimeric …); assay: SPR exp 2, Biacore 8K, OX40L ECD-TNCc-HIS amine coupled to CM5 chip, antibody as analyte, Kd at equilibrium
Source text: as §2

[5] = target: T1, canine OX40L, full length membrane …; assay: flow cytometry titration on HEK cells expressing OX40L; Kd (EC50) from GeoMean vs concentration, Prism four parameter fit
Protocol: FIG. 10. Affinity determination for antibodies that bind OX40L on HEK cells expressing OX40L. Graphs are generated by plotting GeoMean arbitrary units (AU) against Log₁₀ [concentration]. Kd (EC₅₀) was calculated using Prism.
as §1

[6] = target: T1, canine OX40L, full length membrane …; assay: flow cytometry titration on MEF cells expressing OX40L; Kd (EC50) from GeoMean vs concentration, Prism four parameter fit
Protocol: FIG. 11. Affinity determination for antibodies that bind OX40L on MEF cells expressing OX40L. Graphs are generated by plotting GeoMean arbitrary units (AU) against Log₁₀ [concentration]. Kd (EC₅₀) was calculated using Prism.
as §1

Binder	binding result [1]	Kd [2] [nM]	Kd [3] [nM]	Kd [4] [nM]	Kd [5] [nM]	Kd [6] [nM]
B1	binds	–	–	–	–	–
B2	–	37	14.8	14.8	3	–
B3	–	74.6	19.7	6.61	5.12	1.11
